According to article PMC6488296, “Optogenetic control shows that kinetic proofreading regulates the activity of the T cell receptor” (eLife, 2019):

Target: T1, PhyB_(1-651)-Avitag-His6 (A. thaliana, UniProt P14713 1-651, phycocyanobilin chromophore; biotin on the Avitag)
T1 construct: phytochrome B (PhyB), Arabidopsis thaliana, the light-responsive N-terminal 651 amino acids; 740 nm light puts them in the OFF state; also called PhyB(660); PhyB(740); source: E. coli BL21(DE3) co-transformed with p171 (phycocyanobilin production), 50 uM biotin in the medium, purified (Ni-NTA); not shown: Avitag, C-terminal, kept; His6, C-terminal, kept
T1 sequence (looked up): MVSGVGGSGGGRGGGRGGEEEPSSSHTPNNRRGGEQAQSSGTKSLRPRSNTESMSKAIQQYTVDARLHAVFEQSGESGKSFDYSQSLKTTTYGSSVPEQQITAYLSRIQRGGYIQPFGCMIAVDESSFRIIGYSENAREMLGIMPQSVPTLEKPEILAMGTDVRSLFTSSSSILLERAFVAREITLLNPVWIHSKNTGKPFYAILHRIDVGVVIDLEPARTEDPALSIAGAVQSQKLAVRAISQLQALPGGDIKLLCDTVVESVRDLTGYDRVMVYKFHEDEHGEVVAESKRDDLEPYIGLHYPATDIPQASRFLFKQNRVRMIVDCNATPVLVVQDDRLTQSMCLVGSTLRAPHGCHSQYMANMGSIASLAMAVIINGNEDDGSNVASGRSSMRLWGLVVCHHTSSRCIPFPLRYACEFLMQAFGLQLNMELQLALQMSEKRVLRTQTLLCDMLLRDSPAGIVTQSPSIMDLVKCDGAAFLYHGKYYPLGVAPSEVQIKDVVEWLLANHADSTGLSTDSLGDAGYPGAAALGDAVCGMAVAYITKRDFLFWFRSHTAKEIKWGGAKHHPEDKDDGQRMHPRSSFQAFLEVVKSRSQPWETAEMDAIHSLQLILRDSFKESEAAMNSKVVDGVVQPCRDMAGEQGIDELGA
Test: SEC; 200 ug PhyB illuminated with 660 nm light, added in a 2:1 molar ratio to MBP-PIF (limiting MBP-PIF); 60 min at room temperature; Superdex 200 10/300 GL; PhyB detected at 671 nm
Conditions: both partners purified

binding result: binds
B1: MBP-PIF6_(1-100)-His6 (domain or fragment, A. thaliana, UniProt Q8L5W7 1-100, looked up)
chain: MMFLPTDYCCRLSDQEYMELVFENGQILAKGQRSNVSLHNQRTKSIMDLYEAEYNEDFMKSIIHGGGGAITNLGDTQVVPQSHVAAAHETNMLESNKHVD
notes: also called MBP-PIF(wt); pOSY061; source: E. coli BL21(DE3), purified (Ni-NTA); not shown: His6, C-terminal, kept
